Measured values as given in the supplement of paper PMC9233669.
This sample holds only a part of the variants without activity.

Tests used:
biotinyl-Phe-oxazolone = test: self-aminoacylation, catalytic enhancement (BFO) (fold over background); higher = more active; k-Seq, kA / k0A0; sequences stand for … in GGGAAUGGAUCCACAUCUACGAAUUC…UUCACUGCAGACUUGACGAAGCUG
Procedure, shortened: (§1)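 Working in 50 μL HEPES/NaCl/KCl/MgCl2/CaCl2 buffer with 5% acetonitrile at pH 6.9–7.0, mutagenized RNA pools (0.43 μM; 21-nt variable region) were reacted with 2–1250 μM of each biotinyl-aminoacyl-oxazolone for 90 minutes at room temperature. Streptavidin capture followed, with quantification by triplicate qPCR and Illumina sequencing. Catalytic enhancement is reported as median kA over the uncatalyzed rate, the low-activity peak of a bimodal Gaussian fit to the data.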

biotinyl-Ile-oxazolone = test: self-aminoacylation, catalytic enhancement (BIO) (fold over background); higher = more active; k-Seq, kA / k0A0; sequences stand for … in GGGAAUGGAUCCACAUCUACGAAUUC…UUCACUGCAGACUUGACGAAGCUG
Procedure, shortened: as §1

biotinyl-Met-oxazolone = test: self-aminoacylation, catalytic enhancement (BMO) (fold over background); higher = more active; k-Seq, kA / k0A0; sequences stand for … in GGGAAUGGAUCCACAUCUACGAAUUC…UUCACUGCAGACUUGACGAAGCUG
Procedure, shortened: as §1

biotinyl-Val-oxazolone = test: self-aminoacylation, catalytic enhancement (BVO) (fold over background); higher = more active; k-Seq, kA / k0A0; sequences stand for … in GGGAAUGGAUCCACAUCUACGAAUUC…UUCACUGCAGACUUGACGAAGCUG
Procedure, shortened: as §1

biotinyl-Leu-oxazolone = test: self-aminoacylation, catalytic enhancement (BLO) (fold over background); higher = more active; k-Seq, kA / k0A0; sequences stand for … in GGGAAUGGAUCCACAUCUACGAAUUC…UUCACUGCAGACUUGACGAAGCUG
Procedure, shortened: as §1

biotinyl-Trp-oxazolone = test: self-aminoacylation, catalytic enhancement (BWO) (fold over background); higher = more active; k-Seq, kA / k0A0; sequences stand for … in GGGAAUGGAUCCACAUCUACGAAUUC…UUCACUGCAGACUUGACGAAGCUG
Procedure, shortened: as §1

Sequence | self-aminoacylation (biotinyl-Phe-oxazolone) | self-aminoacylation (biotinyl-Ile-oxazolone) | self-aminoacylation (biotinyl-Met-oxazolone) | self-aminoacylation (biotinyl-Val-oxazolone) | self-aminoacylation (biotinyl-Leu-oxazolone) | self-aminoacylation (biotinyl-Trp-oxazolone)
CCACACUGCAGGCAAUCGGUC [Fam1B.1 aminoacylation ribozyme variant] | 5.92 | 1.44 | 1.76 | 2.17 | 1.57 | 1.38
CCACACUGCAUGCAAUCGGUC [Fam1B.1 aminoacylation ribozyme variant] | 0.714 | 0.875 | 0.803 | 0.857 | 0.507 | 0.659
CCACACUGGAAGCAAUCGGUC [Fam1B.1 aminoacylation ribozyme variant] | 0.508 | 0.881 | 0.78 | 1.08 | 0.737 | 0.543
CCACACUUAAAGCAAACGGUC [Fam1B.1 aminoacylation ribozyme variant] | 0.924 | 0.685 | 0.502 | 0.765 | 0.616 | 0.578
CCACACUUAAAGCAAUAGGUC [Fam1B.1 aminoacylation ribozyme variant] | 1.24 | 0.67 | 0.509 | 0.913 | 0.662 | 0.592
CCACACUUAAAGCAAUCUGUC [Fam1B.1 aminoacylation ribozyme variant] | 0.686 | 0.463 | 0.391 | 0.676 | 0.414 | 0.349
CCACACUUCAAACAAACGGUC [Fam1B.1 aminoacylation ribozyme variant] | 0.66 | 0.692 | 0.626 | 0.697 | 0.598 | 0.471
CCACACUUCAAACAAGCGGUC [Fam1B.1 aminoacylation ribozyme variant] | 0.971 | 0.922 | 0.68 | 0.746 | 0.728 | 0.603
CCACACUUCAAACAAUCGGUC [Fam1B.1 aminoacylation ribozyme variant] | 102 | 1.38 | 1.46 | 1.53 | 2.32 | 47
CCACACUUCAACCAAUCCGUC [Fam1B.1 aminoacylation ribozyme variant] | 1.33 | 1.07 | 0.672 | 0.867 | 0.784 | 0.919
CCACACUUCAACCAAUCGGAC [Fam1B.1 aminoacylation ribozyme variant] | 2.28 | 0.897 | 0.789 | 1.02 | 0.981 | 1.26
CCACACUUCAACCAAUCGGUG [Fam1B.1 aminoacylation ribozyme variant] | 4.06 | 3.05 | 3.66 | 2.91 | 6.37 | 5.38
CCACACUUCAACCAUUCGGUC [Fam1B.1 aminoacylation ribozyme variant] | 6.93 | 1.51 | 1.52 | 1.35 | 1.25 | 1.98
CCACACUUCAACGAAUCGGUC [Fam1B.1 aminoacylation ribozyme variant] | 11.2 | 0.873 | 1.03 | 1.09 | 0.962 | 9.08
CCACACUUCAAGAAAUCGGAC [Fam1B.1 aminoacylation ribozyme variant] | 0.823 | 0.898 | 0.663 | 0.685 | 0.572 | 0.393
CCACACUUCAAGAUAUCGGUC [Fam1B.1 aminoacylation ribozyme variant] | 0.633 | 0.774 | 0.624 | 0.795 | 0.736 | 0.657
CCACACUUCAAGCAAACAGUC [Fam1B.1 aminoacylation ribozyme variant] | 1.09 | 0.816 | 0.609 | 0.757 | 0.674 | 0.375
CCACACUUCAAGCAAACGGUU [Fam1B.1 aminoacylation ribozyme variant] | 1.41 | 1.32 | 1.25 | 1.59 | 1.34 | 0.973
CCACACUUCAAGCAACCGGAC [Fam1B.1 aminoacylation ribozyme variant] | 0.734 | 1.15 | 0.839 | 1.07 | 0.602 | 0.606
CCACACUUCAAGCAAGCUGUC [Fam1B.1 aminoacylation ribozyme variant] | 0.716 | 0.504 | 0.451 | 0.565 | 0.404 | 0.346
CCACACUUCAAGCAAUACGUC [Fam1B.1 aminoacylation ribozyme variant] | 1.36 | 0.705 | 0.457 | 0.925 | 0.563 | 0.556
CCACACUUCAAGCAAUCAGCC [Fam1B.1 aminoacylation ribozyme variant] | 3.01 | 1.04 | 0.884 | 1.72 | 1.51 | 2.26
CCACACUUCAAGCAAUCAGUA [Fam1B.1 aminoacylation ribozyme variant] | 1.17 | 0.983 | 0.861 | 0.842 | 0.899 | 0.842
CCACACUUCAAGCAAUCAGUU [Fam1B.1 aminoacylation ribozyme variant] | 2.42 | 1.15 | 0.802 | 1.29 | 0.925 | 1.12
CCACACUUCAAGCAAUCAUUC [Fam1B.1 aminoacylation ribozyme variant] | 1.64 | 0.649 | 0.539 | 0.671 | 0.56 | 0.686
CCACACUUCAAGCAAUCCCUC [Fam1B.1 aminoacylation ribozyme variant] | 0.896 | 1.04 | 0.846 | 1.15 | 0.729 | 1.35

Sequence | self-aminoacylation (biotinyl-Phe-oxazolone) | self-aminoacylation (biotinyl-Ile-oxazolone) | self-aminoacylation (biotinyl-Met-oxazolone) | self-aminoacylation (biotinyl-Val-oxazolone) | self-aminoacylation (biotinyl-Leu-oxazolone) | self-aminoacylation (biotinyl-Trp-oxazolone)
CCACACUUCAAGCAAUCCGUC [Fam1B.1 aminoacylation ribozyme variant] | 1.34 | 0.894 | 0.659 | 1.01 | 0.664 | 0.828
CCACACUUCAAGCAAUCGCUA [Fam1B.1 aminoacylation ribozyme variant] | 1.05 | 1.41 | 1.22 | 1.94 | 1.44 | 1.27
CCACACUUCAAGCAAUCGCUG [Fam1B.1 aminoacylation ribozyme variant] | 0.653 | 1.22 | 1.13 | 1.12 | 0.928 | 0.872
CCACACUUCAAGCAAUCUAUC [Fam1B.1 aminoacylation ribozyme variant] | 0.891 | 0.557 | 0.422 | 0.683 | 0.533 | 0.287
CCACACUUCAAGCAAUCUGUG [Fam1B.1 aminoacylation ribozyme variant] | 0.656 | 0.514 | 0.547 | 0.635 | 0.657 | 0.383
CCACACUUCAAGCAAUUGAUC [Fam1B.1 aminoacylation ribozyme variant] | 0.853 | 0.573 | 0.368 | 0.538 | 0.536 | 0.518
CCACACUUCAAGCACUCGAUC [Fam1B.1 aminoacylation ribozyme variant] | 0.872 | 0.604 | 0.43 | 0.713 | 0.546 | 0.436
CCACACUUCAAGCACUCGGGC [Fam1B.1 aminoacylation ribozyme variant] | 13.2 | 2.58 | 3.49 | 3.61 | 2.62 | 3.37
CCACACUUCAAGCACUCGGUC [Fam1B.1 aminoacylation ribozyme variant] | 0.887 | 0.855 | 0.777 | 0.996 | 0.757 | 0.733
CCACACUUCAAGCACUGGGUC [Fam1B.1 aminoacylation ribozyme variant] | 0.974 | 0.807 | 0.66 | 1.1 | 0.971 | 1.03
CCACACUUCAAGCAUGCGGUC [Fam1B.1 aminoacylation ribozyme variant] | 0.814 | 1.41 | 1.57 | 2.27 | 1.62 | 2.22
CCACACUUCAAGCAUUCGAUC [Fam1B.1 aminoacylation ribozyme variant] | 1.11 | 0.664 | 0.629 | 0.856 | 0.577 | 0.748
CCACACUUCAAGCAUUCGCUC [Fam1B.1 aminoacylation ribozyme variant] | 2.04 | 2.27 | 2.42 | 2.88 | 2.41 | 2.64
CCACACUUCAAGCAUUCGGAC [Fam1B.1 aminoacylation ribozyme variant] | 0.829 | 1.35 | 0.977 | 1.29 | 0.681 | 0.71
CCACACUUCAAGCAUUCGGUG [Fam1B.1 aminoacylation ribozyme variant] | 68.5 | 5.54 | 8.89 | 5.97 | 11 | 7.88
CCACACUUCAAGCCAUCGGUC [Fam1B.1 aminoacylation ribozyme variant] | 0.854 | 0.995 | 0.95 | 1.24 | 0.986 | 0.932
CCACACUUCAAGCCAUCGGUG [Fam1B.1 aminoacylation ribozyme variant] | 31.3 | 3.57 | 4.72 | 4.15 | 6.79 | 4.89
CCACACUUCAAGCCAUUGGUC [Fam1B.1 aminoacylation ribozyme variant] | 0.631 | 0.787 | 0.874 | 1.09 | 0.848 | 0.734
CCACACUUCAAGCGAUCAGUC [Fam1B.1 aminoacylation ribozyme variant] | 1.37 | 0.884 | 0.699 | 0.776 | 0.665 | 0.843
CCACACUUCAAGCGAUCGGAC [Fam1B.1 aminoacylation ribozyme variant] | 0.588 | 1.22 | 1.33 | 1.27 | 1.26 | 1.36
CCACACUUCAAGCGAUCGGUC [Fam1B.1 aminoacylation ribozyme variant] | 1.72 | 0.887 | 0.743 | 1.02 | 0.815 | 1.51
CCACACUUCAAGCUAUCGGUG [Fam1B.1 aminoacylation ribozyme variant] | 33 | 3.88 | 5.19 | 3.77 | 6.48 | 5.5
CCACACUUCAAGCUAUUGGUC [Fam1B.1 aminoacylation ribozyme variant] | 0.896 | 0.797 | 0.643 | 0.759 | 0.595 | 0.661
CCACACUUCAAGCUCUCGGUC [Fam1B.1 aminoacylation ribozyme variant] | 0.716 | 1.21 | 1.14 | 1.42 | 1.25 | 1.1
CCACACUUCAAGGAAUCGGCC [Fam1B.1 aminoacylation ribozyme variant] | 1.42 | 1.89 | 2.08 | 2.4 | 2.39 | 4.4
